# Data reported in publication doi:10.1101/2025.08.01.667454.
# Target: PU.1[60–100]^TMR (human) (UniProt P17947)
# Experiment: fluorescence polarisation
substance,measurement,value
BAF60A^SWIB (domain or fragment),Kd,> 50 µM
